T1: 10E8-GT10.2 epitope scaffold (designed scaffold 10E8-GT10.2 with …, N-linked glycosylation sites added (positions not given))
T1 chain: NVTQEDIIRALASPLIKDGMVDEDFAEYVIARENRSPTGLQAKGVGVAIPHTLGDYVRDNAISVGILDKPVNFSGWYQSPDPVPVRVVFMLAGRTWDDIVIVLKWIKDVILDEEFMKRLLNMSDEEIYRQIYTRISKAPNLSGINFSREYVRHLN

B1: NHP-10E8_MPER-GT10v55_W21-09 (antibody, V domains shown)
VH: EVRLVESGGGLVQPGGSLRLSCAASGFTFSDYYMSWVRQAPGKGPEWVGFIRNKANGGTAEYAASVKGRFTISRDDSKSIASLQMNSLKTEDTAVYYCARESPYYNFWSGYYGTNDAFDFWGQGLRVTVSS
VL: QPVLTQSPSASASLGASVKLTCTLSSGHSSYAIAWHQQQQGKAPRYLMRLNSVGSHSKGDGIPDRFSGSSSGAERYLTISNLQSEDEADYYCQTWTTGIQVFGGGTRLTV
B2: NHP-Comp_MPER-GT10v55_W21-04 (antibody, V domains shown)
VH: DVQLVESGGGLVKPGGSLRLSCVASDFTFSSYEMHWVRQAPGKGLEWVSLISESGDTTYYADSVKGRFTISRDNAKNSLFLQMNSLRAEDTAVYYCTRAITVFGVVITHFDYWGQGVLVPVSS
VL: QSALTQPPSVSKSLGQSVTISCTGTSSDIGGYYAVSWYQQHSGTAPRLLIYEVSKRPSGVSDRFSGSKSGNTASLTISGLQAEDEADYYCGSFRTGYTYIFGAGTRLTV
B3: NHP-10E8_MPER-GT10v55_W21-10 (antibody, V domains shown)
VH: EVRLVESGGDLVQPGGSLRLSCAASGFTFSYYSMSWVRQAPGKGLEWIGFIKNKADGGTEAYAESVKGRFTISRDDSENTLYLQMNSLKTDDTAVYSCTRGRVYYNFWSGFYTGGRFDVWGPGVLVTVSS
VL: DIVMTQTPLSLPVTPGEPASISCRSSQSLLDSEDGNTYLDWYLQKPGQSPQLLIYEVSNRASGVPDRFSGSGSDTDFTLKISRLEAEDVGVYYCMQGLEFPFTFGPGTKLDIK
B4: NHP-10E8_MPER-GT10v55_W21-13 (antibody, V domains shown)
VH: QLQLQESGPGLVKPSETLSLTCAVSGGSISGGYGWSWIRQPLGKGLEWIGHIFGSIGSTYYNPSLKSRVTISTDTSKNQFSLKLSSVTAADTAVYYCARTRSFYNFWSGYYTRHAFDFWGQGLRVTVSS
VL: DIVMTQTPLSLPVTLGEPASISCRSSQSLLDSEDGNTYLEWYLQKPGQSPQLLIYEVSNRASGVPDRFSGSGSDTDFTLKISRVEAEDVGVYYCMQALEFPPTFGQGTKVEIK
B5: NHP-Comp_MPER-GT10v55_W26-06 (antibody, V domains shown)
VH: QVQLVQSGAEVKQPGASVKVSCLASGYTFTSYSIHWLRQAHGQRLEWMGWINTATGNPTYTQGFKERFTFSMDTSITTAYLQISSLKTEDTAVYYCARLYRDFWGGYYASSLDVWGRGVLVTVSS
VL: SYDLTQPPSVSVSPGQTARITCGGENIGSEPVHWYQQKPPQAPLQVIYSDSERPSGIPERFSGSKSGNTATLTISGVEAGDEADYYCQVWDISSDHPYIFGAGTRLTV
B6: NHP-10E8_MPER-GT10v55_W21-17 (antibody, V domains shown)
VH: QVQLQESGPGLVKPSETLSLTCVVAGGSISDDYYWSWIRQSPGKGLEWIGYIYGSGGGTKYNPSLKNRVTISIDTSKNQFSLKLSSVTAADTAVYYCARELRYYNFWSGYYDNYYGLDSWGQGVVVTVSS
VL: DIVMTQTPLSLPITPGEPASISCRSSQSLLHSTGNTYLHWYLQKPGQSPQLLIYGGSNRASGVPDRFSGSGSGTDFTLKISKVEAEDVGVYYCVQAIAFPFTFGPGTKLDIK
B7: NHP-10E8_MPER-GT10v55_W21-15 (antibody, V domains shown)
VH: QLQLQESGPGLVKPSETLSLTCAVSGGSISSSNWWSWIRQPPGKGLEWIGRISGSGGSTSDNPSLKSRVTISKDTSKNQFSLKLSSVTAADTAVYYCASESFYYNFWSGYYQENSLDVWGRGVLVTVSS
VL: QPVLTQPTSLSASPGASARLSCTLSSGINVGSYSIFWYQQKPGSPPRYLLYYYSDSSKHQGSGVPSRFSGSKDASANAGLLLISGLQSEDEADYYCAIWHSSAYVLFGGGTRLTV
B8: NHP-Comp_MPER-GT10v55_W26-02 (antibody, V domains shown)
VH: QLQLQESGPGLVKPSETLSVTCAVSGGSISGGYGWSWIRQPPGKGLEWIGHIFDSFGNTYYNPSLKSRVTISTDTSKNQFSLKLSSVTAADTAVYYCARETVLGAGDYFDSWGQGVLVTVSS
VL: DIQMTQSPSSLSASVGDTVTITCRASQDINNYLAWYQQKPGKAPKPLIYHASYLESGVPSRFSGSGSGTDFTLTISSLQPEDFAIYYCQQHNAYPFTFGPGTKLDIK
B9: NHP-10E8_MPER-GT10v55_W21-14 (antibody, V domains shown)
VH: QVQLQESGPGLVKPSETLSLTCAVSGGSISSGYYYWSWIRQPPGKGLEWIGYITYSGSTSYNPSLKSRVTISRDTSKNQFSLKLSSVTAADTAVYYCASAPSYYNFWSGYYHLDYFDYWGQGVLVTVSS
VL: QSVLTQPPSVSGAPGQRVTISCTGSSSNIGGYYVSWYQQLPGTTPKLLIYQDNKRPSGVSDRFSGSKSGTSASLTITGLQTEDEADYYCLSYDSSLSAHGLFGGGTRLTV
B10: NHP-Comp_MPER-GT10v55_W21-08 (antibody, V domains shown)
VH: EVQLVESGGGLVQPGGSLRLSCAASGFTFSHYGLHWVRQAPGKGLEWVAVIWSDGNKKYYADSVKDRFTISRDNSKNMLYLQMNNLKLEDTAVYYCATYTYGDWGQGVLVTVSS
VL: SYELTQPPSVSVSPGQMARITCGGDNLGSKYVHWYQQKPPQAPVLVIYDDSERPSGIPERFSGSKSGNTATLTISGVEAGDEADYYCQVWDSSSDNWVFGGGTRLTV
B11: NHP-Comp_MPER-GT10v55_W26-08 (antibody, V domains shown)
VH: QVTLKESGPALVKPTQTLTLTCTFSGFSISTTGTGVGWIRQPPGKALEWLATISWNDSKYYSTSLKSRLTISKDTSKNQVVLTFTNMDPVDTATYSCARVLQPTITTTNRFDVWGPGVLVTVSS
VL: SYDLTQPPSVSVSPGQTARITCGGDNIGSKYVHWYQQKPPQAPVLVIYYDTERPSGIPERFSGSKSGNTATLTISGVEAGDEADYYCQVWDSSSDHNVFGSGTKLTV
B12: NHP-Comp_MPER-GT10v55_W21-02 (antibody, V domains shown)
VH: QVQLQESGPAVVKPSETLSLTCAVSGGSISSNNWWSWIRQSPGKGLEWIGGLYGSGGNTEYYPSLKSRVTISVDTSKNQFSLKLSSVTAADTAVYYCASPAPYYGRGYSFDAFDFWGQGLRVTVSS
VL: QSALTQPPSVSKSLGQSVTISCTGTSSDIGGYNGVSWYQQHSGTAPKLLIYDVNKRPSGVSDRFSGSKSGNTASLTISGLQAEDEADYYCCSYRGGSTYWVFGGGTRLTV
B13: NHP-10E8_MPER-GT10v55_W21-18 (antibody, V domains shown)
VH: QLQLQESGPGLVKPSETLSLTCAVSGGSISSSYWSWIRQAPGKGLEWIGYIYGSGSSTNYNPSLKSRVTLSVDTSKNQLSLKLSSVTAADTAVYYCARDVKDYNFWSGYYEDGYFDYWGQGVLVTVSS
VL: DIVMTQTPLSLPVTPGEPASISCRSSQSLLHSNGNTYLHWYLQKPGQSPRLLIYKVTNRESGVPDRFSGSGSGTDFTLKISRVEPEDVGVYYCMQSTKDPYSFGQGTKVEIK
B14: NHP-10E8_MPER-GT10v55_W21-11 (antibody, V domains shown)
VH: EVRLVESGGGLVQPGGSLRLSCAASGFTFSDYYMSWVRQAPGKGPEWVGFIRNKANGGTAEYAASVKGRFTISRDDSKSIASLQMNSLKTEDTAVYYCARDRGNYNFWSGYSGSDYFDYWGQGVLVTVSS
VL: QSVLTQPPSVSAAPGQKVTISCSGSSSNIGRSYVSWYQQVPGTAPKLLIYDNNKRPSGVSDRFSGSKSGTSASLAITGLQTGDEADYYCGAWDSSLSAGLFGGGTRLTV
B15: NHP-Comp_MPER-GT10v55_W26-04 (antibody, V domains shown)
VH: QVQLQESGPGVVKPSETLSLTCAVSGDSISDSYWWSWIRQPPGKGLEWIGYIYGSSTNTNYNPSLKSRVTISKDTSKNQFSLKLSSVTAADTAVYYCARESRWLEEYPLNTFDYWGQGVLVTVSS
VL: DIVMTQTPLSLPVTPGEPASISCRSSQSLLDSYGYIHLHWYLQKPGQSPQLLIYLGSNRASGVPDRFSGSGSGTDFTLKISRVEAEDVGVYYCMQTLQTPRTFGQGTKVEIK
B16: NHP-10E8_MPER-GT10v55_W21-08 (antibody, V domains shown)
VH: EVQLVESGGGLVQPGGSLRLSCAASGFTFSDYYMYWVRQAPGKGLEWVGFIRSKAYGGTAEYAASVKGRFTISRDDSKSIAYLQMSSLKTEDTAVYYCTRALPYYNFWSGYYTHFDAFDFWGQGLRVTVSS
VL: QAAPTQPPSVSGSPGQSVTISCTGTSSDIGYYNAVSWYQQHPGKAPKLMIYEVSKRPSGVSDRFSGSKSGNTASLTISGLQAEDEADYYCSSYAGSNTLLFGGGTRLTV
B17: NHP-Comp_MPER-GT10v55_W21-07 (antibody, V domains shown)
VH: EVQLVESGGGLAKPGGSLRLSCAASGFTFSSYWMNWVRQTPGKGLEWISAINSGGGSTYYADSVKGRFTISRDNSKNTLSLQMNSLRAEDTAVYYCAKGYGLDSWGQGVVVTVSS
VL: QAAPTQPPSVSGSPGQSVTISCTGTSSDIGYYNAVSWYQQHPGKAPKLMIYEVSKRPSGVSDRFSGSKSGNTASLTISGLQAEDEADYYCSSYAGSNTFIFGAGTRLTV
B18: NHP-10E8_MPER-GT10v55_W21-16 (antibody, V domains shown)
VH: QVQLQESGPGLVKPSETLSLTCAVSGGSISSGYYYWSWIRQPPGKGLEWIGYITYSGSTSYNPSLKSRVTISRDTSKNQFSLKLSSVTAADTAVYYCARVGVYYNFWSGYYTNTYFDYWGQGVLVTVSS
VL: QAAPTQPPSVSGSPGQSVTISCTGTSSDIGYYNAVSWYQQHPGKAPKLMIYEVSKRPSGVSDRFSGSKSGNTASLTISGLQAEDEADYYCSSYAGSNTFIFGAGTRLTV
B19: NHP-Comp_MPER-GT10v55_W21-01 (antibody, V domains shown)
VH: QVQLQESGPGLVKPSETLSLTCAVSGGSFSSYWWGWIRQPPGKGLEWIGSIYGSSGSTEYNPSLKSRATISRDTSKNQFSLKLSSVTAADTAVYYCARVKAPEIFGVVITGYYFDYWGQGVLVTVSS
VL: SYELTQPLSVSVALGQMARITCGGNNIGRKYVYWYQQKPDQAPVLVIYEDSKRPSGIPERFAGSNSGNTATLTIDGAQARDEADYYCQVWDSSTAYIFGAGTRLTV
B20: NHP-Comp_MPER-GT10v55_W26-10 (antibody, V domains shown)
VH: EVQLVESGGGLAKPGGSLRLSCVASGFRFSNYWMNWVRQTPGKGLEWISVINSGGVITYYADSVKGRFTISRDNSKNTLSLQMNSLRTEDTAVYYCARQSLDWGLDSWGQGVVVTVSS
VL: SSELTQDPAVSVALGQTVRITCQGDSLRNHYASWYQQKPGQAPVLVVYGNNNRPSGIPERFSGSRSGNTASLTITGAQVEDEADYYCDSWDSSGTHRVFGGGTRLTV
B21: NHP-Comp_MPER-GT10v55_W21-03 (antibody, V domains shown)
VH: QMQLQESGPGLVKPSETLPLTCAVSGASISSNFWSWIRQAPGMGLEWIGRIYGNGGSTDYNPSLKSRVTISIDTSKNQFSLKLSSVTAADTAVYFCASSFLFRFDVWGPGVLVTVSS
VL: QSVLTQPPSASGAPGQSVTISCSGSSSNIGGNHVYWYQQLPGTAPKLLIYYSNQRPSGVPDRFSGSKSGTSASLAITGLRSEDEADYYCAAWDDSLSSYIFGAGTRLTV

Molecular target: T1, 10E8-GT10.2 epitope scaffold
For B1, the Kd was 3320 nM. B2 gave a Kd of 15.6 nM. B3 gave a Kd of 0.81 nM. With B4 the Kd was 1300 nM. In the case of B5, the Kd is reported as 0.112 nM. Binder B6 has a Kd of 2.41 nM. B7 showed a Kd of 5130 nM. Work on B8 yielded a Kd of 3.18 nM. B9 gave a Kd of 2400 nM. With B10 the Kd was 15.1 nM. B11 was tested, and the Kd was 2.18 nM. For B12, the Kd was 6840 nM. Binder B13 has a Kd of 6000 nM. Work on B14 yielded a Kd of 8110 nM. With B15 the Kd was 20.8 nM. In the case of B16, the Kd is reported as 13200 nM. B17 gave a Kd of 5510 nM. In the case of B18, the Kd is reported as 2400 nM. B19 was tested, and the Kd was 2630 nM. Binder B20 has a Kd of 74.6 nM. With B21 the Kd was 10.8 nM.

— paper PMC11147780, “Vaccination induces broadly neutralizing antibody precursors to HIV gp41” (Nature Immunology, 2024)
